The term Kd denotes the concentration at which binding is half-saturated.

Conditions in all cases: protein: recombinant; label: fluorescein-dT at T8; single-chain dumbbell, 18 bp with central nick, two tetraloops
Data set [1] concerns the target T1, PARP-1 F1+F2 (24-kDa DBD) (Homo sapiens, UniProt P09874 1-214). Put plainly: fluorescence anisotropy; 0; 50 mM Tris-HCl pH 7.0, 150 uM ZnSO4, 4 mM DTT, 25 C; NaCl 0-200 mM (T2, as in cof; 10 nM DNA) or 25 mM (T3 mutants; 25 nM DNA). Background: In fluorescence polarisation assays a small probe gives low polarisation when free and higher when bound to something large.

A further data set has as its target PARP-1 F2 (Homo sapiens, UniProt P09874 103-214). Put plainly: fluorescence anisotropy; 100; 50 mM Tris-HCl pH 7.0, 150 uM ZnSO4, 4 mM DTT, 25 C; NaCl 0-200 mM (T2, as in cof; 10 nM DNA) or 25 mM (T3 mutants; 25 nM DNA).
The target in data set [2] is T1, PARP-1 F1+F2 (24-kDa DBD). Described as above.
A further data set has as its target PARP-1 F2 K119I (Homo sapiens, UniProt P09874 103-214, K119I). In words: fluorescence anisotropy; 25 mM NaCl, one-site fit; 50 mM Tris-HCl pH 7.0, 150 uM ZnSO4, 4 mM DTT, 25 C; NaCl 0-200 mM (T2, as in cof; 10 nM DNA) or 25 mM (T3 mutants; 25 nM DNA).
The next data set addresses PARP-1 F2 K142I (Homo sapiens, UniProt P09874 103-214, K142I). The data set is described as above.
The target of the next data set is PARP-1 F2 K141I/K142I (Homo sapiens, UniProt P09874 103-214, K141I;K142I). Described as above.
The target of a further data set is PARP-1 F2 K141I (Homo sapiens, UniProt P09874 103-214, K141I). The data set is described as above.
A further data set concerns the target PARP-1 F2 K134I (Homo sapiens, UniProt P09874 103-214, K134I). The description is as above.
Another data set has as its target PARP-1 F2 K131I (Homo sapiens, UniProt P09874 103-214, K131I). The data set is described as above.
The target in the next data set is PARP-1 F2 R138I (Homo sapiens, UniProt P09874 103-214, R138I). The data set is described as above.
A further data set deals with PARP-1 F2 G135D (Homo sapiens, UniProt P09874 103-214, G135D). The data set is described as above.
The target of the next data set is PARP-1 F2 K131I/G135D (Homo sapiens, UniProt P09874 103-214, K131I;G135D). The description is as above.
Another data set addresses PARP-1 F2 S120G (Homo sapiens, UniProt P09874 103-214, S120G). The data set is described as above.
Data set [3] addresses T2, DNA ligase III alpha zinc finger (DL3) (UniProt P49916-3 1-117).
T2 sequence: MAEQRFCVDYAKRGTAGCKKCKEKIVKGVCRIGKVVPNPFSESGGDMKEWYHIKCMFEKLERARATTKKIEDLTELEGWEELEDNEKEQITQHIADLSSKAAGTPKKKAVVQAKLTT
In words: fluorescence anisotropy; 20 mM pyrophosphate pH 7.0; more similar to F2 than F1; FA: 50 mM Tris-HCl pH 7, 150 uM ZnSO4, 4 mM DTT, 0-200 mM NaCl, 25 C, 10 nM DNA (mutants 25 nM DNA, 25 mM NaCl); EMSA: 50 mM Tris-HCl pH 7.4, 150 uM ZnSO4, 4 mM DTT, 10% glycerol, RT incubation, gel at 4 C; NMR complexes: 50 mM Tris pH 7.0, 150 uM ZnSO4, 4 mM DTT, 37 C.

T1 sequence (P09874 1-214): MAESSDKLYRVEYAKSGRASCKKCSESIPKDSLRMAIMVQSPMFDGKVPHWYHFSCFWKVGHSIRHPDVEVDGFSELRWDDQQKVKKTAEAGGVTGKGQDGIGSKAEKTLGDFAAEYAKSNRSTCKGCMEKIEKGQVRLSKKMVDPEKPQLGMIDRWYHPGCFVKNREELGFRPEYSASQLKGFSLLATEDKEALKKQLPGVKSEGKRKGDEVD
PARP-1 F2 G135D, sequence (P09874 103-214 G135D): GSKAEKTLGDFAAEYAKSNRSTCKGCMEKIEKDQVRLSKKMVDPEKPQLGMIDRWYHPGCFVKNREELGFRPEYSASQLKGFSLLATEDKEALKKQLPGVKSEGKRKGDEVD
PARP-1 F2 K131I, sequence (P09874 103-214 K131I): as the sequence (P09874 103-214 G135D) above, with K29I, D33G counted along it
PARP-1 F2 S120G, sequence (P09874 103-214 S120G): as the sequence (P09874 103-214 G135D) above, with S18G, D33G counted along it
PARP-1 F2 R138I, sequence (P09874 103-214 R138I): as the sequence (P09874 103-214 G135D) above, with D33G, R36I counted along it
PARP-1 F2, sequence (P09874 103-214): as the sequence (P09874 103-214 G135D) above, with D33G counted along it
PARP-1 F2 K141I, sequence (P09874 103-214 K141I): as the sequence (P09874 103-214 G135D) above, with D33G, K39I counted along it
PARP-1 F2 K119I, sequence (P09874 103-214 K119I): as the sequence (P09874 103-214 G135D) above, with K17I, D33G counted along it
PARP-1 F2 K141I/K142I, sequence (P09874 103-214 K141I/K142I): as the sequence (P09874 103-214 G135D) above, with D33G, K39I, K40I counted along it
PARP-1 F2 K142I, sequence (P09874 103-214 K142I): as the sequence (P09874 103-214 G135D) above, with D33G, K40I counted along it
PARP-1 F2 K131I/G135D, sequence (P09874 103-214 K131I/G135D): as the sequence (P09874 103-214 G135D) above, with K29I counted along it
PARP-1 F2 K134I, sequence (P09874 103-214 K134I): as the sequence (P09874 103-214 G135D) above, with K32I, D33G counted along it

For CGGTCGATCGTAAGATCGACCGGCGCTGGAGCTTGCTCCAGCGC (structured_DNA, 5'-phosphate) [44-nt nicked dumbbell, 5'-phosphate, fluorescein-dT], the dissociation constant (Kd) in [1] stood at 5.75 nM; in the data set with PARP-1 F2 it was 146 nM; in data set [2], 9.37 nM; with PARP-1 F2 K119I, 4550 nM; in the data set with PARP-1 F2 K142I, 1180 nM; with PARP-1 F2 K141I/K142I, 3930 nM. In addition, the Kd in the data set with PARP-1 F2 K141I came out at 1490 nM; with PARP-1 F2 K134I, 3330 nM; with PARP-1 F2 K131I, 1570 nM; in the data set with PARP-1 F2 R138I, 19800 nM; with PARP-1 F2 G135D, 1710 nM; in the data set with PARP-1 F2 K131I/G135D, 3750 nM. Also, the Kd with PARP-1 F2 S120G is 2430 nM. In [3], the binding result is “binds”.

The values are drawn from article PMC3094755, “The DNA-Binding Domain of Human PARP-1 Interacts with DNA Single-Strand Breaks as a Monomer through Its Second Zinc Finger”.
